Assay results from article PMC5658359 (2017).
Where no end group is shown, it is not given here. [ ]: non-standard residue; d: D form. 5‑Cl‑benzothiazol‑2‑yl side chain = not defined here; 6‑Cl‑benzothiazol‑2‑yl side chain = not defined here; Phe(3-CF3) = N[C@@H](Cc1cccc(C(F)(F)F)c1)C(=O)O; Phe(3,5-F2) = N[C@@H](Cc1cc(F)cc(F)c1)C(=O)O; Phe(3-CN) = N#Cc1cccc(C[C@H](N)C(=O)O)c1; Phe(3-Cl) = N[C@@H](Cc1cccc(Cl)c1)C(=O)O; Phe(4-Cl) = N[C@@H](Cc1ccc(Cl)cc1)C(=O)O; Phe(2-Cl) = N[C@@H](Cc1ccccc1Cl)C(=O)O; 2Nal = N[C@@H](Cc1ccc2ccccc2c1)C(=O)O; Phe(2-F) = N[C@@H](Cc1ccccc1F)C(=O)O; hPhe = N[C@@H](CCc1ccccc1)C(=O)O

Target: human DCN1 (residues 58–259), N-terminal His6 tag (human, UniProt Q96GG9 58-259)
Sequence (Q96GG9 58-259): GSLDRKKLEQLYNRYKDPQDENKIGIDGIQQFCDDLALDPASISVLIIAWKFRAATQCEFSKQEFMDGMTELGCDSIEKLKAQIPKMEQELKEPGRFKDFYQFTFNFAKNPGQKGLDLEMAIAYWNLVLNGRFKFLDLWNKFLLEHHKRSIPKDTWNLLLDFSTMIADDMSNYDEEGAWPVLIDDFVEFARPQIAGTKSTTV
Assay: FP

B1: compound 25 (24 with 5-Cl on the benzothiazol-2-yl) (peptide)
chain: [5‑Cl‑benzothiazol‑2‑yl side chain]IKL
modifications: not fully specified; reading uncertain
- Ki: 2.5 µM

B2: compound 26 (24 with 6-Cl on the benzothiazol-2-yl) (peptide)
chain: [6‑Cl‑benzothiazol‑2‑yl side chain]IKL
modifications: not fully specified; reading uncertain
- Ki: 0.034 µM

B3: UBC12 peptide 3 (peptide)
peptide: MIKLFSLKQQ
- Ki: 6 µM

B4: compound 14 (11 with Cl at the meta position of the phenyl ring) (peptide)
chain: [Phe(3-Cl)]IKL
- Ki: 45 µM

B5: compound 15 (11 with Cl at the para position of the phenyl ring) (peptide)
chain: [Phe(4-Cl)]IKL
- Ki: 71 µM

B6: compound 12 (tetrapeptide 9 with Met1 replaced by homophenylalanine) (peptide)
chain: [hPhe]IKL
- Ki: 313 µM

B7: compound 23 (11 with the phenyl replaced by naphthalen-2-yl) (peptide)
chain: [2Nal]IKL
- Ki: 3.8 µM

B8: compound 13 (11 with Cl at the ortho position of the phenyl ring) (peptide)
chain: [Phe(2-Cl)]IKL
- Ki: 143 µM

B9: analog of 11 containing an m-CN substituted phenyl (peptide)
chain: [Phe(3-CN)]IKL
- Ki: > 1000 µM

B10: analog of 11 containing an m-CF3 substituted phenyl (peptide)
chain: [Phe(3-CF3)]IKL
- Ki: > 1000 µM

B11: analog of 11 with 3,5-di-F substitution of the phenyl (peptide)
chain: [Phe(3,5-F2)]IKL
- Ki: 82 µM

B12: compound 11 (tetrapeptide 9 with Met1 replaced by phenylalanine) (peptide)
peptide: FIKL
- Ki: 41 µM

B13: UBC12 peptide 5 (peptide)
peptide: MIKLFSLK
- Ki: 9.2 µM

B14: UBC12 peptide 8 (peptide)
peptide: MIKLF
- Ki: 111 µM

B15: UBC12 peptide 7 (peptide)
peptide: MIKLFS
- Ki: 83 µM

B16: analog of 11 with o-F substitution of the phenyl (peptide)
chain: [Phe(2-F)]IKL
- Ki: 125 µM

B17: UBC12 tripeptide (10) (peptide)
peptide: MIK
- Ki: > 1000 µM

B18: UBC12 peptide 2 (peptide 1 without Lys12) (peptide)
peptide: MIKLFSLKQQK
- Ki: 2.4 µM

B19: UBC12 seven-residue peptide (6) (peptide)
peptide: MIKLFSL
- Ki: 28 µM

B20: UBC12 peptide 4 (peptide)
peptide: MIKLFSLKQ
- Ki: 6.5 µM

B21: analog of 11 with p-OH substitution of the phenyl (peptide)
peptide: YIKL
- Ki: 386 µM
